Data on one molecule can be found in PMC7794297.

B1: TrxR 2: recombinant human thioredoxin reductase 2, selenoenzyme (protein, UniProt Q9NNW7 37-524, looked up)
Thioredoxin reductase 2, …: QRDYDLLVVGGGSGGLACAKEAAQLGRKVAVVDYVEPSPQGTRWGLGGTCVNVGCIPKKLMHQAALLGGLIQDAPNYGWEVAQPVPHDWRKMAEAVQNHVKSLNWGHRVQLQDRKVKYFNIKASFVDEHTVCGVAKGGKEILLSADHIIIATGGRPRYPTHIEGALEYGITSDDIFWLKESPGKTLVVGASYVALECAGFLTGIGLDTTIMMRSIPLRGFDQQMSSMVIEHMASHGTRFLRGCAPSRVRRLPDGQLQVTWEDSTTGKEDTGTFDTVLWAIGRVPDTRSLNLEKAGVDTSPDTQKILVDSREATSVPHIYAIGDVVEGRPELTPIAIMAGRLLVQRLFGGSSDLMDYDNVPTTVFTPLEYGCVGLSEEEAVARHGQEHVEVYHAHYKPLEFTVAGRDASQCYVKMVCLREPPQLVLGLHFLGPNAGEVTQGFALGIKCGASYAQVMRTVGIHPTCSEEVVKLRISKRSGLDPTVTGCUG
The molecule B1 registered a Kobs (5% (mol) catalyst, 2.5% (v/v) DMSO, 190 μM 3, Tris pH 7.8, 6 °C, uncatalyzed 0.014 ± 0.001) of 0.035 ± 0.003 M⁻¹ s⁻¹. In addition, the “time until total completion of homodimerization” value (5% mol) is reported as 5 days.
